Experimental data taken from the supplement of paper PMC10065799, “High-throughput profiling of sequence recognition by tyrosine kinases and SH2 domains using bacterial peptide display” (eLife, 2023).

These sequences were tested on c-Src (assay: phosphorylation enrichment, bacterial display (enrichment ratio); higher = better substrate or ligand; peptides without Tyr show the background).
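Throughout, for SH2 binding enrichment of the phosphorylated peptide, bacterial display: peptide library displayed on the E. coli surface as eCPX fusions, selected cells deep-sequenced, score is each peptide's frequency after selection divided by its frequency in the input.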
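Throughout, for phosphorylation enrichment, bacterial display: 11-residue human phosphosite peptides and single-mutation variants displayed on the E. coli surface, counted by deep sequencing, each peptide's frequency after selection divided by its frequency in the unselected input library; frequency after pTyr selection over input frequency; kinase dosed for 20-30% of maximal phosphorylation in three min.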

Row | Sequence | phosphorylation enrichment
1 | CDTKLYTSAPN [DNTTIP2_Y427] | 0.65
2 | MSSHHYDYKKY [ZNF445_Y428] | 0.383
3 | FSAPNCCFRCG [PPP2CA_Y265_Y265C_YF] | 0.448
4 | AGQEEYSAMRD [HRAS_Y64] | 0.456
5 | ENAGFYFRISA | 0.492
6 | QNTGNYFDLFG [PTPN11_Y62_D61N_YF] | 0.71
7 | SRDPFYEMLTA [CYTH1_Y382_A386T] | 3.17
8 | PEADKYHLTYA [FGG_Y300_R301H] | 0.915
9 | LIGRGYDDPEV [HSPA9_Y128_R127G] | 0.567
10 | SEKISYVFMKR [SSX7_Y48_L43S_YF] | 0.412
11 | TKFVAYIESQG [KDM4B_Y34_N29T_YF] | 0.396
12 | GIFSGYDDAWD [POLR1C_Y36_N32I_YF] | 0.514
13 | QEIATCRRLLE [KRT14_Y415_Y415C] | 0.372
14 | RQQQDYWLMDV [ANPEP_Y600_I603M] | 0.509
15 | TSEASYYKSLN [NGEF_Y288] | 0.49
16 | PEIIAYQPYGK [PRKCG_Y529] | 0.523
17 | PLLLSYFLIKW [NUP160_Y773_YF] | 0.684

Row | Sequence | phosphorylation enrichment
18 | SVVVCYEPPEV [TP53_Y220_P219C] | 0.518
19 | RMSQRYRDVLQ [CYP1A2_Y72_G73R] | 0.745
20 | KDHLDYKFQPR [SOX9_Y172_P170L_YF] | 0.504
21 | EAVKNYTDKRG [PBRM1_Y672] | 0.433
22 | EADRKYEEVAH [TPM3_Y163_R168H] | 0.421
23 | SKEPYYVRCIK [MYO1D_Y586] | 0.451
24 | RRKRAYVEIEF [MAK16_Y282_Q277R_YF] | 0.542
25 | FEGRSYSACTT [MMP9_Y241] | 0.428
26 | EPSLVYMVTKI [CPS1_Y768_D767V] | 1.45
27 | DFPIGYPSYLA [TBCK_Y153] | 0.501
28 | ANARMYGVLPW [PLP1_Y207_D203N] | 3.85
29 | LVMFIYAIFWM [SCN1A_Y1684_G1688W] | 0.5
30 | KLQKYYRKNPD [EHHADH_Y683_Q685K] | 0.275
31 | PKGWNYELPAT [PROM1_Y34_A31G] | 0.383
32 | YSGIYYKPESL [L2HGDH_Y103_H98Y] | 6.07
33 | QAEEWYFGKMG [YES1_Y159] | 0.787

These sequences were tested against Grb2 SH2 (UniProt P62993) (assay: SH2 binding enrichment of the phosphorylated peptide, bacterial display (enrichment ratio); higher = better substrate or ligand; peptides without Tyr show the background).

Row | SH2 binding enrichment | Sequence
34 | 0.799 | MSSHHYDYKKY [ZNF445_Y428]
35 | 0.931 | FSAPNCCFRCG [PPP2CA_Y265_Y265C_YF]
36 | 1.04 | QNTGNYFDLFG [PTPN11_Y62_D61N_YF]
37 | 0.681 | SEKISYVFMKR [SSX7_Y48_L43S_YF]
38 | 0.968 | GIFSGYDDAWD [POLR1C_Y36_N32I_YF]
39 | 0.747 | PEIIAYQPYGK [PRKCG_Y529]
40 | 0.814 | SVVVCYEPPEV [TP53_Y220_P219C]
41 | 0.823 | KDHLDYKFQPR [SOX9_Y172_P170L_YF]
42 | 1.01 | EADRKYEEVAH [TPM3_Y163_R168H]
43 | 0.9 | DFPIGYPSYLA [TBCK_Y153]
44 | 0.814 | ANARMYGVLPW [PLP1_Y207_D203N]
45 | 1.3 | LVMFIYAIFWM [SCN1A_Y1684_G1688W]
46 | 1.14 | PKGWNYELPAT [PROM1_Y34_A31G]
47 | 0.942 | QAEEWYFGKMG [YES1_Y159]

Continued, sequence first:

Row | Sequence | SH2 binding enrichment
48 | CDTKLYTSAPN [DNTTIP2_Y427] | 0.808
49 | AGQEEYSAMRD [HRAS_Y64] | 0.816
50 | ENAGFYFRISA | 0.729
51 | SRDPFYEMLTA [CYTH1_Y382_A386T] | 0.958
52 | PEADKYHLTYA [FGG_Y300_R301H] | 0.561
53 | LIGRGYDDPEV [HSPA9_Y128_R127G] | 0.772
54 | TKFVAYIESQG [KDM4B_Y34_N29T_YF] | 0.736
55 | QEIATCRRLLE [KRT14_Y415_Y415C] | 0.908
56 | RQQQDYWLMDV [ANPEP_Y600_I603M] | 0.896
57 | TSEASYYKSLN [NGEF_Y288] | 0.684
58 | PLLLSYFLIKW [NUP160_Y773_YF] | 1.13
59 | RMSQRYRDVLQ [CYP1A2_Y72_G73R] | 0.719
60 | EAVKNYTDKRG [PBRM1_Y672] | 0.866
61 | SKEPYYVRCIK [MYO1D_Y586] | 0.748
62 | RRKRAYVEIEF [MAK16_Y282_Q277R_YF] | 0.504
63 | FEGRSYSACTT [MMP9_Y241] | 0.818
64 | EPSLVYMVTKI [CPS1_Y768_D767V] | 0.769
65 | KLQKYYRKNPD [EHHADH_Y683_Q685K] | 0.905
66 | YSGIYYKPESL [L2HGDH_Y103_H98Y] | 0.831

Each sequence was assayed against SHP2-C SH2 in the same assay as above.

Row | SH2 binding enrichment | Sequence
67 | 0.692 | MSSHHYDYKKY [ZNF445_Y428]
68 | 0.751 | FSAPNCCFRCG [PPP2CA_Y265_Y265C_YF]
69 | 0.867 | QNTGNYFDLFG [PTPN11_Y62_D61N_YF]
70 | 0.906 | SEKISYVFMKR [SSX7_Y48_L43S_YF]
71 | 0.695 | GIFSGYDDAWD [POLR1C_Y36_N32I_YF]
72 | 0.676 | PEIIAYQPYGK [PRKCG_Y529]
73 | 0.656 | SVVVCYEPPEV [TP53_Y220_P219C]
74 | 0.685 | KDHLDYKFQPR [SOX9_Y172_P170L_YF]
75 | 0.626 | EADRKYEEVAH [TPM3_Y163_R168H]
76 | 0.534 | DFPIGYPSYLA [TBCK_Y153]
77 | 0.749 | ANARMYGVLPW [PLP1_Y207_D203N]
78 | 1.76 | LVMFIYAIFWM [SCN1A_Y1684_G1688W]
79 | 0.613 | PKGWNYELPAT [PROM1_Y34_A31G]
80 | 1.09 | QAEEWYFGKMG [YES1_Y159]

Further lines, the sequence ahead of its results:

Row | Sequence | SH2 binding enrichment
81 | CDTKLYTSAPN [DNTTIP2_Y427] | 0.607
82 | AGQEEYSAMRD [HRAS_Y64] | 0.643
83 | ENAGFYFRISA | 0.566
84 | SRDPFYEMLTA [CYTH1_Y382_A386T] | 0.747
85 | PEADKYHLTYA [FGG_Y300_R301H] | 0.704
86 | LIGRGYDDPEV [HSPA9_Y128_R127G] | 0.635
87 | TKFVAYIESQG [KDM4B_Y34_N29T_YF] | 0.703
88 | QEIATCRRLLE [KRT14_Y415_Y415C] | 0.469
89 | RQQQDYWLMDV [ANPEP_Y600_I603M] | 0.815
90 | TSEASYYKSLN [NGEF_Y288] | 0.518
91 | PLLLSYFLIKW [NUP160_Y773_YF] | 1.04
92 | RMSQRYRDVLQ [CYP1A2_Y72_G73R] | 0.548
93 | EAVKNYTDKRG [PBRM1_Y672] | 0.567
94 | SKEPYYVRCIK [MYO1D_Y586] | 0.674
95 | RRKRAYVEIEF [MAK16_Y282_Q277R_YF] | 0.459
96 | FEGRSYSACTT [MMP9_Y241] | 0.598
97 | EPSLVYMVTKI [CPS1_Y768_D767V] | 0.531
98 | KLQKYYRKNPD [EHHADH_Y683_Q685K] | 0.604
99 | YSGIYYKPESL [L2HGDH_Y103_H98Y] | 10.5

The sequences below were run against c-Src SH2 in the same assay as above.

Row | SH2 binding enrichment | Sequence
100 | 0.64 | MSSHHYDYKKY [ZNF445_Y428]
101 | 0.585 | FSAPNCCFRCG [PPP2CA_Y265_Y265C_YF]
102 | 0.599 | QNTGNYFDLFG [PTPN11_Y62_D61N_YF]
103 | 0.386 | SEKISYVFMKR [SSX7_Y48_L43S_YF]
104 | 4.13 | GIFSGYDDAWD [POLR1C_Y36_N32I_YF]
105 | 0.622 | PEIIAYQPYGK [PRKCG_Y529]
106 | 0.584 | SVVVCYEPPEV [TP53_Y220_P219C]
107 | 0.47 | KDHLDYKFQPR [SOX9_Y172_P170L_YF]
108 | 20.4 | EADRKYEEVAH [TPM3_Y163_R168H]
109 | 0.458 | DFPIGYPSYLA [TBCK_Y153]
110 | 0.503 | ANARMYGVLPW [PLP1_Y207_D203N]
111 | 1.21 | LVMFIYAIFWM [SCN1A_Y1684_G1688W]
112 | 1.25 | PKGWNYELPAT [PROM1_Y34_A31G]
113 | 0.359 | QAEEWYFGKMG [YES1_Y159]

The next lines start with the sequence.

Row | Sequence | SH2 binding enrichment
114 | CDTKLYTSAPN [DNTTIP2_Y427] | 0.387
115 | AGQEEYSAMRD [HRAS_Y64] | 0.679
116 | ENAGFYFRISA | 0.669
117 | SRDPFYEMLTA [CYTH1_Y382_A386T] | 2.25
118 | PEADKYHLTYA [FGG_Y300_R301H] | 0.655
119 | LIGRGYDDPEV [HSPA9_Y128_R127G] | 2.39
120 | TKFVAYIESQG [KDM4B_Y34_N29T_YF] | 0.6
121 | QEIATCRRLLE [KRT14_Y415_Y415C] | 0.704
122 | RQQQDYWLMDV [ANPEP_Y600_I603M] | 0.634
123 | TSEASYYKSLN [NGEF_Y288] | 0.528
124 | PLLLSYFLIKW [NUP160_Y773_YF] | 0.662
125 | RMSQRYRDVLQ [CYP1A2_Y72_G73R] | 0.495
126 | EAVKNYTDKRG [PBRM1_Y672] | 0.516
127 | SKEPYYVRCIK [MYO1D_Y586] | 0.498
128 | RRKRAYVEIEF [MAK16_Y282_Q277R_YF] | 0.434
129 | FEGRSYSACTT [MMP9_Y241] | 0.573
130 | EPSLVYMVTKI [CPS1_Y768_D767V] | 0.482
131 | KLQKYYRKNPD [EHHADH_Y683_Q685K] | 0.597
132 | YSGIYYKPESL [L2HGDH_Y103_H98Y] | 6.04
